Experimental data: paper PMC7901142 (The Journal of Cell Biology, 2021)

Biological target: SNX27-PDZ WT (human, UniProt Q96L92 43-136)
Assay: ITC

B1: SEMA4C (aa 686–833) (domain or fragment)
chain: LRRRLREELEKGAKATERTLVYPLELPKEPTSPPFRPCPEPDEKLWDPVGYYYSDGSLKIVPGHARCQPGGGPPSPPPGIPGQPLPSPTRLHLGGGRNSNANGYVRLQLGGEDRGGLGHPLPELADELRRKLQQRQPLPDSNPEESSV
Question: With B1 as the binder, how does the Kd read?
Answer: The Kd was 4.5 µM.
